# Assay results reported in article PMC8352653 (Cell Reports, 2021).
# B1: COV2-2164 (antibody, V domains shown)
# VH: QVQLVQSGAEVKKPGSSVKVSCKASGGTFSSYAISWVRQAPGQGLEWMGGIIPIFGTANYAQKFQGRVTITADESTSTGYMQLSSLRFEDTAVYYCARTSHYDSSGSYFEYWGQGTLVTVSS
# VL: EIVLTQSPATLSLSPGERATLSCRASQSVSSYLAWYQQKPGQAPRLLIYDASNRATGIPARFSGSGSGTDFTLTISSLEPEDFAVYYCHKRSNWPPSLTFGGGTKVEIK
# B2: CnC2t1p1_B10 (antibody, V domains shown)
# VH: QVQLVQSGAEVKKPGSSVKVSCKASGGTFSSYAISWVRQAPGQGLEWMGGIIPIFGTANYAQKFQGRVTITADKSTSTAYMELSSLRSEDTAVYYCARVSGYDSSGYWGDYWGQGTLVTVSS
# VL: EIVLTQSPATLSLSPGERATLSCRASQSVSSYLAWYQQKPGQAPRLLIYDASNRATGIPARFSGSGSGTDFTLTISSLEPEDFAVYYCQQRSNWPPALTFGGGTKVEIK
# B3: COV2-2531 (antibody, V domains shown)
# VH: QVQLQESGPGLVKPSETLSLTCSVSGGSIRSYFWNWVRQPPGKGLEWIGYIYYSGSTNYKPSFKSRVTISLDTSKNQISLKLSSVTAADTAVYYCARATWLRDAFGIWGQGTMVTVSS
# VL: NFMLTQPHSVSESPGKTVTISCTGNSGSIASNYVQWYQQRPGSAPTTVIYEDSQRPSGVPDRFSGSIDSSSNSASLTISGLKTEDEADYYCQSFDSGNVVFGGGTKLTVL
# B4: C126 (antibody, V domains shown)
# VH: QVQLQESGPGLVKPSETLSLSCAVSGGSIGSYFWSWIRQPPGKGLEWIGYLHYSGSTNYNPSLKSRVTISVDTSKNQFSLKLSSVTAADTAVYYCARLQWLRGAFDIWGQGTMVTVSS
# VL: NFMLTQPHSVSESPGKTVTISCTGSSGSIASNYVQWYQQRPGSAPTTVINEDNQRPSGVPDRFSGSIDSSSNSASLTISGLKTEDEADYYCQSYDSSNLVFGGGTKLTVL
# B5: group 3 germline revertant (antibody, V domains shown)
# VH: QVQLQESGPGLVKPSETLSLTCTVSGGSISSYYWSWIRQPPGKGLEWIGYIYYSGSTNYNPSLKSRVTISVDTSKNQFSLKLSSVTAADTAVYYCARATWLRDAFGIWGQGTMVTVSS
# VL: NFMLTQPHSVSESPGKTVTISCTGSSGSIASNYVQWYQQRPGSAPTTVIYEDNQRPSGVPDRFSGSIDSSSNSASLTISGLKTEDEADYYCQSYDSSNVVFGGGTKLTVL
# B6: COV2-2002 (antibody, V domains shown)
# VH: EVQLVESGGGLVQPGGSLRLSCAASGFTFSFYWMSWVRQAPGKGLEWVANIKQDGSEKYYVDSVKGRSTISRDNAKNSLYLQMNSLRAEDTAVYYCARVGSSSWYFDYWGQGTLVTVSS
# VL: not shown
# B7: COV2-2333 (antibody, V domains shown)
# VH: EVQLVESGGGLVQPGGSLRLSCAASGFTFSIYWMSWVRQAPGKGLQWVANIKQDASEKYYVDSVKGRFTISRDNAKNSLYLQMNSLRAEDTAVYYCARLGGSSWHFDYWGQGTLVTVSS
# VL: SYELTQPPSVSVSPGQTASITCSGDKLGDKYSSWYQQKPGQSPVLVIYEDTKRPSGIPERFSGSNSGNTATLTISGTQAMDEADYYCQAWSSSTAVFGGGTKLTVL
# Legend:
# [1] = molecular target: recombinant stabilized trimeric prefusion ectodomain of the SARS-CoV-2 S protein (S6P_(ecto)) (SARS-CoV-2, UniProt P0DTC2)
# [2] = molecular target: S protein C-terminal S2 region expressed on HEK293T cells (SARS-CoV-2, Wuhan-Hu-1, UniProt P0DTC2); test: flow cytometry on cells
# SARS-CoV-2 RBD = SARS-CoV-2 RBD (SARS-CoV-2, Wuhan-Hu-1 (assumed), UniProt P0DTC2); test: ELISA
Binder,binding result [2],binding result (SARS-CoV-2 RBD),other results
B1,–,–,binding result [1]: binds
B2,binds,–,–
B3,–,binds,–
B4,–,binds,–
B5,–,binds,–
B6,binds,–,–
B7,binds,–,–
